In patent publication US20260125472A1 (HEFEI TG IMMUNOPHARMA, published 2026):

B1: Cross310×PDL1 (bispecific antibody, human IgG1, kappa, L234A L235A)
scFv: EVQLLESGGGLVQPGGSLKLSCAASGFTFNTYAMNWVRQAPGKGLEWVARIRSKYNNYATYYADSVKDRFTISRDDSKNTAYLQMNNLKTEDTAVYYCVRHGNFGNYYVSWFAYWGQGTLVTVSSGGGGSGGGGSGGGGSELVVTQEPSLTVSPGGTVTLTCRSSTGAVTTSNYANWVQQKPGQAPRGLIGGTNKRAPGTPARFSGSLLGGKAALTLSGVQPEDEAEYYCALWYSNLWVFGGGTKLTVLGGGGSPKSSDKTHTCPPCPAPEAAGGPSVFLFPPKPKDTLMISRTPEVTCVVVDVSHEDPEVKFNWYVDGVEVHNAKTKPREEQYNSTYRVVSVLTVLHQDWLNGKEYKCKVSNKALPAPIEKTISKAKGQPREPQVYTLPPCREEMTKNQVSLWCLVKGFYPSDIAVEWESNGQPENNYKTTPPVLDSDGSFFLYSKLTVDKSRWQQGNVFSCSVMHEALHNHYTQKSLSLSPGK
heavy: QVQLVQSGAEVKKPGASVKVSCKASGYSFTGYYMHWVRQAPGQGLEWIGRINPYNGATTYSQNFKDRATMTVDTSISTAYMELSRLRSDDTAVYYCVPTGMGYFLMDYWGQGTLVTVSSASTKGPSVFPLAPSSKSTSGGTAALGCLVKDYFPEPVTVSWNSGALTSGVHTFPAVLQSSGLYSLSSVVTVPSSSLGTQTYICNVNHKPSNTKVDKKVEPKSCDKTHTCPPCPAPEAAGGPSVFLFPPKPKDTLMISRTPEVTCVVVDVSHEDPEVKFNWYVDGVEVHNAKTKPREEQYNSTYRVVSVLTVLHQDWLNGKEYKCKVSNKALPAPIEKTISKAKGQPREPQVCTLPPSREEMTKNQVSLSCAVKGFYPSDIAVEWESNGQPENNYKTTPPVLDSDGSFFLVSKLTVDKSRWQQGNVFSCSVMHEALHNHYTQKSLSLSPGK
light: DIQLTQSPSFLSASVGDRVTITCKASQDVGSAVVWYQQKPGKAPKLLIYWASTRHTGVPSRFSGSGSGTEFTLTISSLQPEDFATYFCQQFTSYPTFGQGTKLEIKRTVAAPSVFIFPPSDEQLKSGTASVVCLLNNFYPREAKVQWKVDNALQSGNSQESVTEQDSKDSTYSLSSTLTLSKADYEKHKVYACEVTHQGLSSPVTKSFNRGEC
B2: Cross326×PDL1 (bispecific antibody, human IgG1, kappa, L234A L235A)
scFv: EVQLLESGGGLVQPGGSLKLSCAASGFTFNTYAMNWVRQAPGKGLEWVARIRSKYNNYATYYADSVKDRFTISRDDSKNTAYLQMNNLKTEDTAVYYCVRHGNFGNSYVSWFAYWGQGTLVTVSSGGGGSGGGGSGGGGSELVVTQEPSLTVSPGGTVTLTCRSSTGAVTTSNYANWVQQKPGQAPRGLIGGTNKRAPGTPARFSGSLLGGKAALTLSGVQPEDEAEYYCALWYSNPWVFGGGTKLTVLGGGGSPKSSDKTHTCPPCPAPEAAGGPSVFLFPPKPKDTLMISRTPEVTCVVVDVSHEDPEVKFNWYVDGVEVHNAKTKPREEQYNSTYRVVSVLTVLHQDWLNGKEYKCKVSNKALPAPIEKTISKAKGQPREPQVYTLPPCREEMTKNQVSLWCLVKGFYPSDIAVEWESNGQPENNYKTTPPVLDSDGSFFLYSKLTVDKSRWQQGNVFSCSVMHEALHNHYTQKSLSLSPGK
heavy: B1 heavy
light: B1 light

Legend:
[1] = target: T1, PDL1 on A-375 melanoma cells, HCT-15 colorectal cancer cells and A549 lung cancer cells (UniProt Q9NZQ7 19-290, limits assumed); assay: flow cytometry, A549 cells, MFI [panel B]
T1 construct: whole, on cells
T1 sequence (Q9NZQ7 19-290 limits assumed): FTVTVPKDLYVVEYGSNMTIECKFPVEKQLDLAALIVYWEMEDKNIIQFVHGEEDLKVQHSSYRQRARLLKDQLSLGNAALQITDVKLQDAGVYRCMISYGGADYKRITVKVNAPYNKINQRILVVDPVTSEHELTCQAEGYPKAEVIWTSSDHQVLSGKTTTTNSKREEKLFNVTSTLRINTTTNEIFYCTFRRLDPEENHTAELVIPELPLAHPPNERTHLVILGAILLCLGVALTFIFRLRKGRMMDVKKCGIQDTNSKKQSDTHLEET
Outline: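 Cells were blocked with goat serum at 4° C for 30 min, then incubated with serially diluted bispecific antibodies or hIgG1LALA control at 4° C for 30 min. Bound antibody was detected with Alexa-647 anti-human IgG (4° C, 30 min, dark) and read by flow cytometry.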

[2] = target: T2, PDL1 protein (UniProt Q9NZQ7 19-238); assay: ELISA, coated PDL1 protein, OD450 [panel A]
T2 construct: Bought recombinant protein
T2 sequence (Q9NZQ7 19-238 limits assumed): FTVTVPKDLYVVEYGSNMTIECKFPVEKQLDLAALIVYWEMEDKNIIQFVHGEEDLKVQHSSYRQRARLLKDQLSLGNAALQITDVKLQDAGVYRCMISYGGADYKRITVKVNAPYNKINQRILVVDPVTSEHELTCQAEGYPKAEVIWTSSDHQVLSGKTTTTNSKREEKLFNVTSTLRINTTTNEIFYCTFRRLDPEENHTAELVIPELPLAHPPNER
Outline: (§1)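 PDL1 protein coated at 2 μg/ml overnight at 4 °C, blocked with PBS/10% BSA; serially diluted bispecific antibodies or control IgG1LALA bound 1 h at 37 °C. Detection with HRP anti-human Fab secondary antibody and TMB for 3 min, stopped with sulfuric acid, absorbance at 450 nm.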

[3] = target: T1, PDL1 on A-375 melanoma cells, HCT-15 …; assay: flow cytometry, A-375 cells, binding ratio % [panel A]
Method: (§2) (2) The tumor cells were diluted to 2×10⁶/ml with PBS and added to a 1.5 ml EP tube at a volume of 100 μl/tube, and goat serum was added thereto at 10 μl/tube. The cells were blocked at 4° C. for 30 min. The serially diluted bispecific antibodies, Cross3×Trop2, Cross303×Trop2, Cross307×Trop2, Cross308×Trop2, Cross309×Trop2, Cross310×Trop2, Cross311×Trop2, Cross312×Trop2, Cross313×Trop2, Cross314×Trop2, Cross316×Trop2, Cross317×Trop2, Cross318×Trop2, Cross323×Trop2, Cross325×Trop2, Cross326×Trop2, and Cross3×PDL1, Cross303×PDL1, Cross307×PDL1, Cross308×PDL1, Cross309×PDL1, Cross310×PDL1, Cross311×PDL1, Cross312×PDL1, Cross313×PDL1, Cross314×PDL1, Cross316×PDL1, Cross317×PDL1, Cross318×PDL1, Cross323×PDL1, Cross325×PDL1, Cross326×PDL1, and control hIgG1LALA (purchased from Bio-Tech) were added and incubated at 4° C. for 30 min. 1 ml of PBS was added to the EP tube, followed by centrifugation at 3500 rpm for 5 min at 4° C. The supernatant was discarded, and the cells were washed again with PBS. After centrifugation, the supernatant was completely discarded, and the cells were resuspended with PBS at 100 μl/tube. Alexa-647-labeled goat anti-human IgG secondary antibody (purchased from Jackson lab) was added at 1 μl/tube and incubated at 4° C. in the dark for 30 min. The cells were washed twice with PBS, and the supernatant was completely discarded after centrifugation. The cells were resuspended with PBS at 200 μl/tube and assay was performed using the flow cytometry.

[4] = target: T1, PDL1 on A-375 melanoma cells, HCT-15 …; assay: flow cytometry, HCT-15 cells, binding ratio % [panel A]
Method: as §2, with “The cells were resuspended with PBS at 200 μl/tube and assay was performed using the flow cytometry.” left out

[5] = target: T2, PDL1 protein; assay: ELISA, coated PDL1 protein, OD450 [panel B]
Outline: as §1

Binder	EC50 (read off the curve) [1] [µg/mL]	EC50 (read off the curve) [2] [µg/mL]	EC50 (read off the curve) [3] [µg/mL]	EC50 (read off the curve) [4] [µg/mL]	EC50 (read off the curve) [5] [µg/mL]
B1	~2	~0.5	~0.7	~0.7	
B2			~0.07	~0.07	~0.1
